What was measured:
Details in all cases: protein: recombinant; tags: GST (pGEX-4T-1); label: 3'-biotin
[1] = molecular target: AdERF105L (kiwifruit, UniProt A0A2R6RWH8 1-269); assay: EMSA; reduced by 20- and 500-fold unlabeled probe; LightShift Chemiluminescent EMSA kit (Thermo); 3'-biotin dsDNA probes, 20- and 500-fold unlabeled competitor; buffer, salt, pH and temperature not stated
[2] = molecular target: T1, AdWRKY29 (kiwifruit, UniProt A0A2R6PHX2 1-296); assay: as above
T1 sequence: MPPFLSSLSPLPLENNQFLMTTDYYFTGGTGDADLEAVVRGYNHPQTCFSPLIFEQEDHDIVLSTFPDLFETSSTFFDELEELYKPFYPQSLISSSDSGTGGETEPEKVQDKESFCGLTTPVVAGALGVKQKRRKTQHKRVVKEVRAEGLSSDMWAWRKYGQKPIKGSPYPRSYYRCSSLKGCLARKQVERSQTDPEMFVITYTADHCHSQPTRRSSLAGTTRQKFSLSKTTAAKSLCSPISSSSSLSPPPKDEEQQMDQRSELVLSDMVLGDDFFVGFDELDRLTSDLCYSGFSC

[3] = molecular target: T1, AdWRKY29; assay: EMSA; LightShift Chemiluminescent EMSA kit (Thermo); 3'-biotin dsDNA probes, 20- and 500-fold unlabeled competitor; buffer, salt, pH and temperature not stated

AdERF105L, sequence (A0A2R6RWH8 entry or part of it): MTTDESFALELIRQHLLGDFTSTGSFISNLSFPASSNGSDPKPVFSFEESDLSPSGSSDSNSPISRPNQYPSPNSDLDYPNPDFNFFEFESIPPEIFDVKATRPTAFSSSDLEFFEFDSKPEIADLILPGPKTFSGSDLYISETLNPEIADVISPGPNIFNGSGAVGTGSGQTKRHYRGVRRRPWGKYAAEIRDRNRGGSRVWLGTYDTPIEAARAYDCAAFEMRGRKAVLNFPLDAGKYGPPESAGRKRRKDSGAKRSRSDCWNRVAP

B1: AdACS1 promoter DRE probe (dsDNA)
DNA 1: CTGCGATTTGCCGTCGGTACGACTCTCATC
DNA 2: GATGAGAGTCGTACCGACGGCAAATCGCAG
binding result [1]: binds

B2: AdACO5 promoter W-box probe (dsDNA)
DNA 1: AACAAAGTCCAGTTGACCACTTTAATTTCC
DNA 2: GGAAATTAAAGTGGTCAACTGGACTTTGTT
binding result [2]: binds

B3: AdACO5 promoter W-box mutant probe (dsDNA)
DNA 1: AACAAAGTCCAGAAAAAAACTTTAATTTCC
DNA 2: GGAAATTAAAGTTTTTTTCTGGACTTTGTT
binding result [3]: no binding

B4: AdACS2 promoter DRE probe (dsDNA)
DNA 1: CTAAGATTTGCTGTCGGTATGGCTCTCAT
DNA 2: ATGAGAGCCATACCGACAGCAAATCTTAG
binding result [1]: binds

From publication PMC9347011, “Transcriptional and post-transcriptional regulation of ethylene biosynthesis by exogenous acetylsalicylic acid in kiwifruit”
